Experimental data as given in the domain aggregation screens of Martell et al. (2025).

experiment: soluble fraction after stress (log2 fold change); higher = more stays soluble; pooled small domains, quantitative proteomics; settings: stress: 50 degC
In short: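 Pooled custom libraries of small protein domains were each held under stress at 50°C. The read-out, high-throughput quantitative proteomics, tracked how much of each protein stayed soluble. This is reported as a base-two log fold change used to indicate aggregation propensity. Higher values mean more protein remains in solution.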

Sequence	soluble fraction (log2)
HMSESLLTAAGFKTIAATTPEQKRHLEWLHPDQVTAVQLTGQHYYVYPDVAKSQLFVGTPKEYQAYLALRT	-0.414
HMGSIMIIVLKENAPQQAAEKLMKEIRAKGLQIDVSKGTRKTVLGLVGDTSVIDMEHVQGYDYVDKVLRV	0.0715
HMRLPQEVWEKIRAAYEAHGLSFSELAEMYGVNKSNISRRAKAEGWNQAETQRLITATVENE	0.267
HMNGVPDMSPVPEGARNSTLHAWAFGRLKNHPDNETGIREDLFRRGHASGLQDAELDQIWKSIKRTL	0.0847
HMTNPPTPADTLFNTVRGVLQSILKSPMKDTEVASALNVSKAQARSWLQRLSDEGLIEKRKNPTAYVL	-0.238
HMGGLIDQSIQEIIDKYSVPGKKIQKAQRLKIVAEMHTKGIFKMRGGVQQAAQALGVTRYTVYNDLEVMN	-2.89
HMENISVESKMKLLLKSLKTRDFISLPELVLKGESKLAISVILVAALELNRKGYIEVVQAEQFGEIYFKNT	-0.191
HMAIELIDLIKNPETAPFSKLKYLKWMPEAEVTGFFNNLFQLNVTARETGDWSTVDKFLEDEGDRIAAQVA	-0.138
HMVAGGTVSRKLSIETGLPKRKSLIGSWLDQNSVWHNIISVRHRNGYGDGVNYGFYLRSLLTSEGNLAW	-0.114
HMDTIYPFNPNFIDDYKGYVLGLNTNEIDRLLKYRSKGNWINSAEDFKKVTGIDDALLNKLSKSFKFPDWL	-1.44
HMPVASNRDVNLDIGERVFVQEWAPNRTARVQYRGSPWEARLAPGAPAAAGEHRVSAVEGNWLVLEPA	-0.0102
HMNENYNLSKREKEVLDLLVNGKSYKVIATELAISYETVHSHIKKIYHKLHVSSIGEAVSKTIKQKIL	-1.58
HMGSFAADVGRMVRLGRAKRGISRRKLAADSGISERYLAQIEGGQGNPSVNVLKAIADAISVPVFELLPH	-1
HMEPMNMYSSIKKVIGVVSGKGGVGKSLVTASLARMMRAKGYHVGIMDADITGPSIPKMYGLHEMA	0.42
HMSEEKLVFSIPDDIETMRIDKAIALETHLSRAQIAELFKENKILLNSKNSKRSEKVKPGDKISLEFIPKI	-0.00517
HMYSIKEFSFEVTTPGQRLDLFLSEELIGQTRSSIQNLILKKYVTVNGQVSKASYKVKTGEFISVKIPV	-3.16
HMSTKRQKELLEYVDRFITEHGYGPSYREIMNAIGYKSVSTVAIHIDGLIAKGYLRKRDNSARSLEVV	-0.716
HMQETIDVAALRVGMFVHLDLGWLAHPFPLSSFRISSEDQISTIRALGLKRVRWSSQHSELG	-1.11
HMKPVTNHTVKFYVDDVLWKTVTVKHGGNVRLADLPMSDGKTFVGWSESVVNVTKDLTVFALFS	-0.562
HMKELVEDFASRISNARQSKGWNQSELAKRMAETVNVVKSAESGKSPTDSVIKKLERVLGIILM	-0.591
HMVEYIENINLSEKQKFIAHEILKEIRGRAIFLRDVGLDYLNLSRKAGTLSGGEAQRIRLATQIGSA	0.226
HMIVNEQEQTFIKAMRDDDFNTILELKMKGYQPSDNVLKSLQPDISSTTFIAAAKIFQMERMLK	0.218
HMYDASELNKALEEAKKLDLNNYTEESSEALKNAISKAEEALLSKDKETINSALEELNKAMDSL	0.112
HMSEYEYALHEFGITKKQSQRIFDRLSIADLEERINAIQTTLKQRSDIDNPAAYAWTVLNAE	-0.207
HMVEMIGLQMVGKSGIASTVLRPSGKVRIDGVVYDAVSEDGFIEKGQAVKVLRYETGQVYVEKL	-0.254
HMFSDDEINRLKARDSILVNLRDSEKQVWELYTDGKTVQNIANQLNKHKQSISATIINIKNKISRKQNMLK	-0.534
HMEQISIETRIEQLLARLSETEASGFEELFADTSSRADLITTFLALLEMIRLKLVRVFQDGSFGPIRIYKR	-0.27
HMNIFAHQIGKLRTERHLSQTDVAKRLYVSRQAVSKWENGDAEPSLDNLIALAKLFNVSLDNLITGQ	-0.49

Sequence	soluble fraction (log2)
HMRREIRLTVTEEIVLMKFLLTQIPYKNRDNFKTLLNDRQIRVNGSVVTWYNHPLKPGQEVTIGWFKM	-0.168
HMGNQALSSVLSDIAGIGPVKTKELLRVYPDLDSLRQAPVEEVAKVKGIGRQLAQKIHDHFSSR	0.189
HMGAKEHLAGETLRMAVELLSEKQGIPAEQALIRFISSPVYDALYDLDTGMWTQGPTRLLEAFEALE	-1.7
HMNRIEMTEPIIIKDLSRETGIPWVAIQKRLAQDGIMANINTTIEAEKAQLIAVDYGIELAVV	0.0679
HMNADLDIQNVNGNTPLWEAVMRYRGDGFFIEQLLKNGANPDIKNNYGVSPKSLARTIANYDVRRFFN	-0.137
HMIFRPALITDLDAVERHYTELLTREAETGRSSTNWSLGVYPTRQTATAAQAAGTLWVLEREGQVVASVI	-0.245
HMNASTVTLENFEGAKYDDVYGKYDYQFSVTYEQTDKYESGVIISQKPEAGTKIIKGSQVSLVVAT	0.0657
HMSDEVNTDKAFRAIDSTLNRNVKGIAPRDHTLLRNTMITYFKSNDYIDYDTMIQSTLENYKPTELEQDKM	0.165
HMTGKLGKIILQPKQTVYGITKKYQISESELRRLNPQLDSHLKIGDEVILPAENIKKFGGNQPVAVS	0.311
HMQEAGLITQRIREMREKENWTQEYMAEQLGMSENGYAKIERGESNLSLKRLQQIADIFEVESAELLK	0.0493
HMKTGNIIAVSLVWKGKYYMIRMFFPSAARPSRADVQTEIEKVYPGSKLSSFSVSDYEPGQPLLQV	-2.31
HMEITGKYKAKEDIKLKVIPLISSLDLQDIKQNTELEVKDTMNNWAYVTVQEKQGWVVLEKIEKVE	-0.0549
HMLPITPGQKYKFVVKSAEEAAAIIRDKLGEMAQVISVRQVEGEGLARFLKSPKLEIIAQVPVA	-0.132
HMDTNTIIGLRIKALRTEKKYTLKYLSENSGLSIGFLSQLERGMTSVAIDSLDKISKVLDVELSSFFN	-2.93
HMAEVDREEALRIALAHAAVARRDVRNLKIERGEENGVPVYKVEFETAFGDFDVAVSRRSGDVVDAD	0.0689
HMFAATGVVNAPSGLVLRETASKGGNPLATVPDKAQVEIVEEDGEWYKVKVNEQTGYLFAEFVNKTE	0.0336
HMTAVVPNFKGKLISELSNFVADKNVRYTIIDSIYDPEEKSGIVIKQDPEEKTQVKHNRIIYLYVTST	-1.53
HMDRNIVYSDFIRSVNQGQVSEVLVQGDNIRGRYLNGKVFQTFAPKDPSLISTLRNKGVRISAEPA	0.113
HMNKAYLTVADMKKDKSLKNGDVVRTLGYYGYNDGDGAVYQIKDSHPEDYHIRLDNGLDAEQINY	0.012
HMRNQIRAVITPVPNQERYTVEMTIDDDAGNLLTLQMAAPDRQQAAEFAQRFQKHPEALYHAVLSVLL	0.0702
HMKFNLWLSEKLKKLGLTQRKLAEQAGVSPATVSRWLSGEFEPDLTNLRKINQVLGVPERELFLQLGL	0.154
HMEDKFEYQGELKSLIEPTSFSELVSALNVRDTLQAIIDFAMREEDTSGYEELKVRQNDYIQEYLNSIGNF	-1.04
HMAPVTPEERAQAMEEYKAMVTIEGYTPPKNIIEQNYKRGLWSETMLNMAVTKGAITEAEKLEIMN	0.124
HMIQTKKVTFTVEPTVNFEKINISGIEFKINSGSSITAIYEKNSHNFDEVLDFLKQKGVKILDIVTED	-0.118
HMFTKYSPDFKLSVILDMRKNNLGYGEVVRKYWNLDSYKESDRHRSQVRLWERIFLEEGVEGFM	-4.64
HMHSQVFTDPDKAKNAVVKLGAPLVVKADGLALGKGVIIAQNPQAAKEAVASVGSSGISSISVT	0.0607
HMERAPAYPDGLTQREVEVLRLIASGKTDREIAEELFIGVRTVSTHVGNILNKTNSANRTEAASYANQQGL	-0.191
